In the RNAGym collection of RNA variant scans (doi:10.7554/elife.80360):

B1: Twister Ribozyme (parent)
chain: AACACUGCCAAUGCCGGUCCCAAGCCCGGAUAAAAGUGGAGGGGGCGG

Variants of: B1
Experiment: self-cleavage, relative activity (ratio to wild type); higher = more cleavage; co-transcriptional

First: AACACUGCCAAUCCAGGUCCCAAGCCCGGAUAAAAGUGGAGGGGGCGG
Second: AACACUGCCAAUCCGGGUCCCAAGCCCGGAUAAAAGUGGAGGGGGCGG
The self-cleavage of the first is lower: 0.0696 for the first, 0.0922 for the second.

Going from AACACUGCCAAUUCCGGUCCCUAGCCCGGAUAAAAGUGGAGGGGGCGG to AACACUGCCAAUUCCGGUCCCGAGCCCGGAUAAAAGUGGAGGGGGCGG, the self-cleavage falls from 0.174 to 0.098.

Going from AACACUGCCAAUUCCGGUCCCAUGCCCGGAUAAAAGUGGAGGGGGCGG to AACACUGCCAAUUCCGGUCCCACGCCCGGAUAAAAGUGGAGGGGGCGG, the self-cleavage falls from 0.0818 to 0.0557.

Going from AACACUGCCAAUACCGGUCCCAAGCCCGGAGAAAAGUGGAGGGGGCGG to AACACUGCCAAUCCCGGUCCCAAGGCCGGAUAAAAGUGGAGGGGGCGG, the self-cleavage falls from 1.01 to 0.101.

Compared with AACACUGCCAAUCCCGGUCCCAAGUCCGGAUAAAAGUGGAGGGGGCGG, AACACUGCCAAUUCCGGUCCCAAGCCCGGAUAAAAUUGGAGGGGGCGG is lower in self-cleavage: 0.163 for the first, 0.107 for the second.

Compared with AACACUGCCAAUCCCGGUCCCAAGCCCGGAUAAAAGUGGAGGCGGCGG, AACACUGCCAAUCCCGGUCCCAAGCCCGGAUAAAAGUGGAGGAGGCGG is lower in self-cleavage: 0.105 for the first, 0.0854 for the second.

Going from AACACUGCCAAUUCCGGUCCCAAGUCCGGAUAAAAGUGGAGGGGGCGG to AACACUGCCAAUUCCGGUCCCAAGACCGGAUAAAAGUGGAGGGGGCGG, the self-cleavage falls from 0.129 to 0.0642.

First: AACACUGCCAAUUCCGGUCCCAAGCCCGGAUAAAAGUGGAGAGGGCGG
Second: AACACUGCCAAUUCCGGUCCCAAGCCCGGAUAAAAGUGGAGUGGGCGG
The self-cleavage of the first is higher: 0.139 for the first, 0.114 for the second.

Going from AACACUGCCAAUUCCGGUCCCAAGCCCGGAUAAAAGUGGAGCGGGCGG to AACACUGCCAAUCCCGGUCCCAAGCCCGGAUAAAAGUGCAGGGGGCGG, the self-cleavage falls from 0.181 to 0.117.

Compared with AACACUGCCAAUCCCGGUCCCAAGCCCGGAUAAAAGUGUAGGGGGCGG, AACACUGCCAAUCCCGGGCCCAAGCCCGGAUAAAAGUGGAGGGGGCGG is lower in self-cleavage: 0.108 for the first, 0.0609 for the second.

Going from AACACUGCCAAUCCCGGACCCAAGCCCGGAUAAAAGUGGAGGGGGCGG to AACACUGCCAAUUCCGGUCUCAAGCCCGGAUAAAAGUGGAGGGGGCGG, the self-cleavage rises from 0.067 to 0.134.

First: AACACUGCCAAUCCCGGUUCCAAGCCCGGAUAAAAGUGGAGGGGGCGG
Second: AACACUGCCAAUCCCGGUGCCAAGCCCGGAUAAAAGUGGAGGGGGCGG
The self-cleavage of the first is lower: 0.0706 for the first, 0.125 for the second.

Going from AACACUGCCAAUUCCGGUCCCAAGCCCGGAUAAAAGUAGAGGGGGCGG to AACACUGCCAAUUCCGGUGCCAAGCCCGGAUAAAAGUGGAGGGGGCGG, the self-cleavage falls from 0.226 to 0.0472.

Compared with AACACUGCCAAUCCCGGUCCAAAGCCCGGAUAAAAGUGGAGGGGGCGG, AACACUGCCAAUCCCGGUCCUAAGCCCGGAUAAAAGUGGAGGGGGCGG is lower in self-cleavage: 0.0599 for the first, 0.0571 for the second.

Going from AACACUGCCAAUCCCGGUCCGAAGCCCGGAUAAAAGUGGAGGGGGCGG to AACACUGCCAAUUCCGGUCCCAAGCCCGGAUAAAAGUGAAGGGGGCGG, the self-cleavage rises from 0.0833 to 0.113.

First: AACACUGCCAAUCCCGGUCCCAAGCCCGGAUAAUAGUGGAGGGGGCGG
Second: AACACUGCCAAUCCCGGUCCCAAGCCCGGAUAAGAGUGGAGGGGGCGG
The self-cleavage of the first is lower: 0.137 for the first, 0.253 for the second.

Going from AACACUGCCAAUCCCGGUCCCAAGCCCGGAUAACAGUGGAGGGGGCGG to AACACUGCCAAUCCCGGUCCCAAGCCCGGAUAAAAGCGGAGGGGGCGG, the self-cleavage rises from 0.0766 to 0.116.

Compared with AACACUGCCAAUCCCGGUCCCAAGCCCGGAUAAAAGGGGAGGGGGCGG, AACACUGCCAAUUCCGGUCCCAAGCCCGGUUAAAAGUGGAGGGGGCGG is higher in self-cleavage: 0.125 for the first, 0.749 for the second.

Going from AACACUGCCAAUCCCGGUCCCAAGCCCAGAUAAAAGUGGAGGGGGCGG to AACACUGCCAAUCCCGGUCCCAAGCCCCGAUAAAAGUGGAGGGGGCGG, the self-cleavage rises from 0.307 to 0.31.

Compared with AACACUGCCAAUCCCGGUCCCAAGCCCUGAUAAAAGUGGAGGGGGCGG, AACACUGCCAAUUCCGGUCCCAAGCCCGGAUAAAAGUGGAGGGAGCGG is higher in self-cleavage: 0.255 for the first, 0.821 for the second.

First: AACACUGCCAAUUCCGGUCCCAAGCCCGGAUAAAAGUGGAGGGUGCGG
Second: AACACUGCCAAUUCCGGUCCCAAGCCCGGAUAAAAGUGGAGGCGGCGG
The self-cleavage of the first is higher: 0.428 for the first, 0.137 for the second.

First: AACACUGCCAAUUCCGGUCCCAAGCCCGGAUAAAAGUGGAGGUGGCGG
Second: AACACUGCCAAUUCCCGUCCCAAGCCCGGAUAAAAGUGGAGGGGGCGG
The self-cleavage of the first is higher: 0.155 for the first, 0.094 for the second.

Going from AACACUGCCAAUUCCUGUCCCAAGCCCGGAUAAAAGUGGAGGGGGCGG to AACACUGCCAAUCCCGGUCCCAAGCCCGGAUAAAAGUGGGGGGGGCGG, the self-cleavage falls from 0.253 to 0.0963.

First: AACACUGCCAAUCCCGGUCCCAAGCCCGGAUAAAAGUGGUGGGGGCGG
Second: AACACUGCCAAUCCCGGUCCCAAUCCCGGAUAAAAGUGGAGGGGGCGG
The self-cleavage of the first is higher: 0.109 for the first, 0.0687 for the second.

Going from AACACUGCCAAUUCCGGUCCCAAGCCCGGAUAAAAGUGGAGGGGGCGG to AACACUGCCAAUCCCGGUCCCAAGCCCGGAUAAAAGUGGAGGGGGCGG, the self-cleavage falls from 0.801 to 0.584.

Going from AACACUGCCAAUCCCGGUCCCAAGCCCGGAUAAAAGUCGAGGGGGCGG to AACACUGCCAAUCCCGGUCCCAAGCCCGGAUAAAAGUGGAGGGGGCUG, the self-cleavage falls from 0.32 to 0.145.

First: AACACUGCCAAUCCCGGUCCCAAGCCCGGAUAAAAGUGGAGGGGGCAG
Second: AACACUGCCAAUCCCGGUCCCAAGCCCGGAUAAAAGUGGAGGGGGCCG
The self-cleavage of the first is lower: 0.154 for the first, 0.179 for the second.
